Data on 3 proteins can be found in patent US20140237632A1 (UNIVERSITY OF CHICAGO, published 2014).

Where a chain is given by its changes, count along the chain named. Numbers in names are those of the source.

Data set [1] concerns the molecule itself. The experiment in a line: self-association; FRET in spectra and nondenaturing SDS-PAGE.
Data set [2] deals with the molecule itself. Nature of the data set: self-association; nondenaturing SDS-PAGE. The procedure:
FIG. 4. Decreasing the net charge near the N terminus of DsRed reduces aggregation of the protein. (A) Nondenaturing SDS-PAGE of purified DsRed1 (WT), the Round 1 variant (R1), the Round 3 variant (R3), the Round 4 variant (R4), DsRed.T1 (T1), DsRed.T3 (T3) and DsRed.T4 (T4). 1 μg of each purified DsRed variant was mixed with SDS-containing sample buffer on ice and immediately electrophoresed at 4° C. in a 10% poly-acrylamide gel, followed by staining with Coomassie Blue. WT* and T4*: Additional aliquots of DsRed1 and DsRed.T4 were denatured by boiling prior to electrophoresis. MW: broad range prestained protein standard (Bio-Rad). (B) To measure the solubilities of the fluorescent proteins in E. coli, cells carrying pREP4 plus pQE31-based expression vectors encoding DsRed1, DsRed2, the Round 3 variant, the Round 4 variant, or EGFP were grown to an OD₆₀₀ of 0.5, induced with IPTG for 7 h, then lysed with B-PER II and centrifuged for 20 min at 27,000×g. […] The bound antibody was detected using the ECL-Plus kit (Amersham) and a Molecular Dynamics Storm 860 phosphorimager. For each fluorescent protein, a dilution series from the bacterial extract was analyzed, and a sample within the linear range for the detection system was chosen. The percentage of each protein in the supernatant fraction was then quantified. […]

B1: DsRed.T3 (other)
chain: MASSEDVIKEFMRFKVRMEGSVNGHEFEIEGEGEGRPYEGTQTAKLKVTKGGPLPFAWDILSPQFQYGSKVYVKHPADIPDYKKLSFPEGFKWERVMNFEDGGVVTVTQDSSLQDGCFIYKVKFIGVNFPSDGPVMQKKTMGWEPSTERLYPRDGVLKGEIHKALKLKDGGHYLVEFKSIYMAKKPVQLPGYYYVDSKLDITSHNEDYTIVEQYERTEGRHHLFL
notes: Fluorescent protein variant, purified with a hexahistidine tag from E. coli; Entered only for its self-association (tetramer); not shown: N-terminal hexahistidine tag (pQE31) and polylinker upstream of the start codon, carrying P(-4)L
B1: the binding result in data set [1] is “binds”.

B2: DsRed Round 4 variant (other)
chain: B1 chain with P145A
notes: Round 3 variant plus R2A, K5E and N6D; also called R4; not shown: N-terminal hexahistidine tag (pQE31) and polylinker upstream of the start codon, carrying P(-4)L
Take B2: the binding result in data set [2] is “binds”.

B3: DsRed.T4 (other)
chain: B1 chain with T217A
notes: as for B1
As for B3, the binding result in data set [1] is “binds”.
